Data reported in publication PMC11496930, “Targeting RSV-neutralizing B cell receptors with anti-idiotypic antibodies” (Cell Reports, 2024).
Blank lines part the entries; values can stand above or below the binder they belong to.

Molecular target: ADI-19425 Fab (human, UniProt P0DOY2)
Assay: BLI; 1D3 IgG or 2C1 IgG (67 nM) on anti-human IgG capture sensors; ADI-19425 Fab in serial dilutions from 250 nM to 0 nM; KB buffer, 30°C; 1:1 binding model
Conditions: both partners purified

Chain of ADI-19425 Fab (VH, as listed by the source, chain 1 of 2): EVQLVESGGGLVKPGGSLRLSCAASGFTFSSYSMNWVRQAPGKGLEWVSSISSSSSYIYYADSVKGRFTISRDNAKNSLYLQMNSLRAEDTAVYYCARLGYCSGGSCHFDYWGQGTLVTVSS
Chain of ADI-19425 Fab (VL, as listed by the source, chain 2 of 2): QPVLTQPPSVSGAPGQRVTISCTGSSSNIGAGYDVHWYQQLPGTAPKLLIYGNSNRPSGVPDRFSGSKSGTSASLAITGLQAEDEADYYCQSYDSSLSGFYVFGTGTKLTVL

Kd: 0.4 nM
B1: 1D3 recombinant IgG (human constant regions) (antibody, V domains shown)
VH: QVQIQQSGAELMRPGASVKLSCKATGYTFTGYWIEWVKQRPGHGLEWIGEILSGRGTTNYNEKFKGKATFTADTYSNTAYMQLSSLTTGDSAIYYCARGGFLYGDGPFDYWGQGTTLTVSS
VL: DILLTQSPAILSVSPGERVSFSCRASQNIDTHIHWYQQRTNGSPRLLIKYASESISGIPSRFSGSGSGTDFTLTINSVESEDIADYYCQQSNSWPFTFGSGTKLEIK
notes: also called 1D3-IgG; 1D3 IgG; source: 293-6E cells, purified (Protein A)

Kd: 1.5 nM
B2: 2C1 recombinant IgG (human constant regions) (antibody, V domains shown)
VH: QVQLQQSGAELVRPGASVTLSCKASGYIFTDYEIHWLKQTPVHGLEWIGTSDPETGGFAYTQKFKGKAILTADKSSSTAYMELRSLTSEDSAVYYCTRRPYYGSGAWFAYWGQGTLVTVSA
VL: DIVMTQSHKFMSTSVGDRVSITCKANHDVNIAVAWYQQKPGQSPKLLIYSASYRYTGVPDRFTGSGSGTDFTFTISSVQAEDLAVYYCQQHYDTPRTFGGGTKLEIK
notes: also called 2C1-IgG; 2C1 IgG; source: 293-6E cells, purified (Protein A)
